Assay results as given in IntAct's records for PubMed 15169888.

B1: Nuclear factor NF-kappa-B p105 subunit (Homo sapiens), P19838-1 (parent)
chain: MAEDDPYLGRPEQMFHLDPSLTHTIFNPEVFQPQMALPTDGPYLQILEQPKQRGFRFRYVCEGPSHGGLPGASSEKNKKSYPQVKICNYVGPAKVIVQLVTNGKNIHLHAHSLVGKHCEDGICTVTAGPKDMVVGFANLGILHVTKKKVFETLEARMTEACIRGYNPGLLVHPDLAYLQAEGGGDRQLGDREKELIRQAALQQTKEMDLSVVRLMFTAFLPDSTGSFTRRLEPVVSDAIYDSKAPNASNLKIVRMDRTAGCVTGGEEIYLLCDKVQKDDIQIRFYEEEENGGVWEGFGDFSPTDVHRQFAIVFKTPKYKDINITKPASVFVQLRRKSDLETSEPKPFLYYPEIKDKEEVQRKRQKLMPNFSDSFGGGSGAGAGGGGMFGSGGGGGGTGSTGPGYSFPHYGFPTYGGITFHPGTTKSNAGMKHGTMDTESKKDPEGCDKSDDKNTVNLFGKVIETTEQDQEPSEATVGNGEVTLTYATGTKEESAGVQDNLFLEKAMQLAKRHANALFDYAVTGDVKMLLAVQRHLTAVQDENGDSVLHLAIIHLHSQLVRDLLEVTSGLISDDIINMRNDLYQTPLHLAVITKQEDVVEDLLRAGADLSLLDRLGNSVLHLAAKEGHDKVLSILLKHKKAALLLDHPNGDGLNAIHLAMMSNSLPCLLLLVAAGADVNAQEQKSGRTALHLAVEHDNISLAGCLLLEGDAHVDSTTYDGTTPLHIAAGRGSTRLAALLKAAGADPLVENFEPLYDLDDSWENAGEDEGVVPGTTPLDMATSWQVFDILNGKPYEPEFTSDDLLAQGDMKQLAEDVKLQLYKLLEIPDPDKNWATLAQKLGLGILNNAFRLSPAPSKTLMDNYEVSGGTVRELVEALRQMGYTEAIEVIQAASSPVKTTSQAHSLPLSPASTRQQIDELRDSDSVCDSGVETSFRKLSFTESLTSGASLLTLNKMPHDYGQEGPLEGKI
partner: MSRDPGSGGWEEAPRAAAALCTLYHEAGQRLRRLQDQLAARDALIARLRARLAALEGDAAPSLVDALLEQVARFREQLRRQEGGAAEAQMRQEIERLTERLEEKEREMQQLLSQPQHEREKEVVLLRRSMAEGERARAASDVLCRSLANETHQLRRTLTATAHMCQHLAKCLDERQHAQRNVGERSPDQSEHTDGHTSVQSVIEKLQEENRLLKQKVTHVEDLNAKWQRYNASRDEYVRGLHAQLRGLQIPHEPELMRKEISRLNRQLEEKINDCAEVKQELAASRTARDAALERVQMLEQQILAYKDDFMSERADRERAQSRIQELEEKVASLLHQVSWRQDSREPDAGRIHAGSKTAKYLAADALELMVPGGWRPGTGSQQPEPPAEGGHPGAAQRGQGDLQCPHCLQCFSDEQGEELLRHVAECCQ

Variants of: B1
Conditions: with tnip2_human TNIP2, Q8NFZ5

Row | Variant | effect of a mutation on the interaction
1 | L841A | disrupting interaction
